Publication PMC11732086 (2024)

Legend:
MBP-OsTORKD [1] = biological target: T1, MBP-OsTORKD (rice, UniProt Q0DJS1 1896-2465); experiment: ITC
T1 chain: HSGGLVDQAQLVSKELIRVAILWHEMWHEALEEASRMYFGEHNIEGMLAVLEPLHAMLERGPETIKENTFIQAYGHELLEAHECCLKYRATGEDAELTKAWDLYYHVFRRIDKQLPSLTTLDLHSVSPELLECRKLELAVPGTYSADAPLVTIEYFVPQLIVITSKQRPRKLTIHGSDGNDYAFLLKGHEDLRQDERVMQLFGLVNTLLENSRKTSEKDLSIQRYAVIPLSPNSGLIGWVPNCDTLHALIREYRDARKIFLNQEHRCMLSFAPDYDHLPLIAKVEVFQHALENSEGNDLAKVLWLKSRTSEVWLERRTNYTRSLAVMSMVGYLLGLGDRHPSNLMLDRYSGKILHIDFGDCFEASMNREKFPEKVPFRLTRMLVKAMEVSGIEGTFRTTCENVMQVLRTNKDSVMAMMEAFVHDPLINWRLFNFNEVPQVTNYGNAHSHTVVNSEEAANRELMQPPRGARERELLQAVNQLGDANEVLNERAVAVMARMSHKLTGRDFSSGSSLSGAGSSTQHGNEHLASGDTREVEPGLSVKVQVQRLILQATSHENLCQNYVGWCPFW

MBP-OsTORKD [2] = biological target: T1, MBP-OsTORKD; experiment: ITC; His-OsFKBP12 in the syringe (10 mM) titrated into MBP-OsNIN8, MBP-OsNIN8m or MBP-OsTORKD in the cell (0.1 mM); 25°C; 20 injections of 2.5 μL, interval 200 s; proteins dialysed in 50 mM potassium phosphate pH 6.4

Kd (MBP-OsTORKD [1]): 81.8 µM
stoichiometry N (OsFKBP12 per OsTORKD) (MBP-OsTORKD [2]): 6
B1: His-OsFKBP12 (natural protein)
chain: MGFEKTILKAGTGPKPVKGQKVTVHCTGFGKDNDLAKKFWSTKDAGQEPFSFNIGQGSVIKGWDEGVMTMQVGEVARIQCTPDYAYGASGFPAWGIRPNSVLVFEIEVLSAQ
